Values quoted from earlier work in publication PMC11076503.

Molecular target: Mpro (Severe acute respiratory syndrome coronavirus 2) (UniProt P0DTD1)

With Mpro (from UniProt P0DTD1) as the substance, how does the Kd read?
The Kd was 7 µM.
